Results as given in patent publication US20180273614A1 (GALAPAGOS, published 2018).
Each block holds one binder with its values, some of them ahead of it.

Legend:
[1] = molecular target: T1, human IL-17C (human, UniProt Q9P0M4 19-197); assay: IHC on paraffin sections of human skin (healthy and atopic dermatitis), biotinylated antibody, avidin-biotin-peroxidase detection
T1 construct: Endogenous IL-17C in paraffin sections of human skin biopsies (IHC); The background calls IL-17C a secreted homodimer; also called interleukin 17C
T1 sequence: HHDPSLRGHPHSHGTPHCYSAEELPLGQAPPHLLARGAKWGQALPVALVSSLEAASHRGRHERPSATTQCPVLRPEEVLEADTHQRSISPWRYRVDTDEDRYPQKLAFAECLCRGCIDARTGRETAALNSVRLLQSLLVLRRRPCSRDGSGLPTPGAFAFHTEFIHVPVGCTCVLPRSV
Experimental: (§1) 4 μm-thick slices from paraffin-embedded skin biopsies from healthy subjects and subjects with atopic dermatitis were analyzed by IHC. Staining for IL-17C expression was performed with biotinylated MOR22420 (and MOR03207 isotype control antibody). In brief, sections were deparaffinised, rehydrated and unmasked by heat epitope antigen retrieval. Endogenous peroxidase was blocked in BLOXALL™ Blocking Solution (Vector Laboratories) and non-specific binding was blocked with 2.5% Horse Serum Blocking Solution (Vector Laboratories). The primary antibodies were incubated for one hour at room temperature. Binding of MOR22420 biotinylated antibody and MOR03207 biotinylated antibody was detected by incubation with Avidin Biotin Peroxidase Complex (Vector Laboratories). The signal was developed using the peroxidase substrate diaminobenzidine tetrahydrochloride (Sigma). Mayer's hematoxylin (BDH) was used for counterstaining before dehydration and mounting of slides.

[2] = molecular target: T2, murine IL-17C (mouse, UniProt Q8K4C5 17-194, limits assumed); assay: IHC on paraffin sections of mouse ear skin (MC903 model), biotinylated antibody
T2 construct: Endogenous IL-17C in paraffin sections of ear skin of BALB/c mice (IHC); also called IL-17C (mouse skin)
T2 sequence (looked up): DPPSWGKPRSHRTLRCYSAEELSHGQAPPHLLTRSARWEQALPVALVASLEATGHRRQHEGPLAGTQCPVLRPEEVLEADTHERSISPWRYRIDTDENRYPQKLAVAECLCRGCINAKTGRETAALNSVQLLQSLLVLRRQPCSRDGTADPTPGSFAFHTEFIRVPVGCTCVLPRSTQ
Experimental: as §1
At sacrifice, samples form ear skin were collected and fixed in 4% formaldehyde before embedding in paraffin. […] Five fields per ear (high power field ×20) covering the whole ear from top to bottom were measured, and the 5 values were averaged per ear and per mice (left/right ear). […]

binding result [1]: binds
B1: MOR22420 (antibody, V domains shown)
VH: QVQLVQSGAEVKKPGSSVKVSCKASGGTFSSYAISWVRQAPGQGLEWMGTIDPFFGKTYYAQKFQGRVTITADESTSTAYMELSSLRSEDTAVYYCARDVSSISYYFHEYYSDRFDYWGQGTLVTVSS
VL: DIALTQPASVSGSPGQSITISCTGTSSDVGGYEYVNWYQQHPGKAPKLMIYDDSYRPSGVSNRFSGSKSGNTASLTISGLQAEDEADYYCQSTDPHSTVVFGGGTKLTVLG
notes: also called biotinylated MOR22420; MOR22420 antibody

binding result [2]: binds
B2: MOR12743 (antibody, V domains shown)
VH: QVQLVQSGAEVKKPGASVKVSCKASGYTFTSNFIHWVRQAPGQGLEWMGWISPYNGDTNYAQKFQGRVTMTRDTSISTAYMELSRLRSEDTAVYYCARESVYYGSDYGYNGMDIWGQGTLVTVSS
VL: DIELTQPPSVSVSPGQTASITCSGDNLGEEYVSWYQQKPGQAPVLVIYDDTKRPSGIPERFSGSNSGNTATLTISGTQAEDEADYYCASWDLWSVEVFGGGTKLTVLG
notes: Said to be disclosed and characterized in WO 2013/057241; also called anti-IL-17C biotinylated MOR12743 antibody; anti-IL-17C MORI 2743 antibody
